Data on 50 sequences can be found in the supplement of paper PMC11780869.

In this series the test system is Bacillus subtilis. Description: cleaved RNA product abundance (RNA/gDNA barcode ratio) relative to median wild-type variant (ratio to wild type); higher = more accumulation of the downstream cleavage product. The conditions noted are these: cleavage site: cggR-gapA (positions -7 to +36 mutated). The gist of the method: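 In LB at 37°C, B. subtilis cultures went from OD600 0.0003 to 0.3. Their chromosomes held barcoded reporter mRNAs, truncated aprE or tetM, with RNase Y cleavage-site windows mutagenized via oligos at a 9% error rate. Cleaved RNA, chosen by gel, was reverse transcribed and barcode-sequenced alongside genomic DNA barcodes with UMI collapsing, giving a per-construct RNA:gDNA ratio scaled to the median construct with the unmutated site. This scaled ratio is termed cleaved product abundance.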

[1] abbreviates: experiment (reporter, strain, medium): exp 2b: truncated aprE reporter, strain BJT200.
The mark [2] stands for this setting: experiment (reporter, strain, medium): exp 4a: truncated aprE reporter, strain BJT201 with 2% xylose (RNase J1 expressed).

For “ACAGACGAAGGAGCCGCAAAGAAGTTATTAAGGACTGAATAATCCCTCAATATAAATATCTCTCACTTATTTAAA”, the “cleaved RNA product abundance” value reads like this: under setting [1], 0.0791; under setting [2], 0.0888.

For “ACAGACGAAGGAGCCGCAAAGAAGTTATTAAGGAGTGAATAATCCCTCAATATAAATATCTCTCACTTATTTAAA”, the “cleaved RNA product abundance” value under setting [2] came out at 0.171.

Consider “ACAGACGAAGGAGCCGCAAAGAAGTTATTAAGGATGAATAATCCCTCAATATAAATATCTCTCACTTATTTAAAG”, for which the “cleaved RNA product abundance” value under setting [2] amounted to 0.294.

Turning to “ACAGACGAAGGAGCCGCAAAGAAGTTATTAAGGATTGAATAATCCCTCAATATAAATATCTCTCACTTATTTAAA”, the “cleaved RNA product abundance” value was determined as 0.217 under setting [1] and 0.301 under setting [2].

For “ACAGACGAAGGAGCCGCAAAGAAGTTATTAAGGCAAGAATAATCCCTCAATATAAATATCTCTCACTTATTTAAA”, the “cleaved RNA product abundance” value under setting [1] worked out at 0.104 and the “cleaved RNA product abundance” value under setting [2] was determined as 0.115.

For “ACAGACGAAGGAGCCGCAAAGAAGTTATTAAGGCAGGAATAATCCCTCAATATAAATATCTCTCACTTATTTAAA”, the “cleaved RNA product abundance” value under setting [1] turned out to be 0.102 and the “cleaved RNA product abundance” value under setting [2] amounted to 0.167.

“ACAGACGAAGGAGCCGCAAAGAAGTTATTAAGGCATAAATAATCCCTCAATATAAATATCTCTCACTTATTTAAA”: the “cleaved RNA product abundance” value reads like this: under setting [1], 0.0865; under setting [2], 0.107.

Regarding “ACAGACGAAGGAGCCGCAAAGAAGTTATTAAGGCATGAAAAATCCCTCAATATAAATATCTCTCACTTATTTAAA”, the “cleaved RNA product abundance” value is, setting by setting: under setting [1], 0.0832; under setting [2], 0.0945.

Regarding “ACAGACGAAGGAGCCGCAAAGAAGTTATTAAGGCATGAACAATCCCTCAATATAAATATCTCTCACTTATTTAAA”, the “cleaved RNA product abundance” value under setting [2] amounted to 0.0684.

As for “ACAGACGAAGGAGCCGCAAAGAAGTTATTAAGGCATGAATAAACCCTCAATATAAATATCTCTCACTTATTTAAA”, the “cleaved RNA product abundance” value under setting [2] was 0.136.

As to “ACAGACGAAGGAGCCGCAAAGAAGTTATTAAGGCATGAATAATACCTCAATATAAATATCTCTCACTTATTTAAA”, the “cleaved RNA product abundance” value under setting [1] turned out to be 0.0988 and the “cleaved RNA product abundance” value under setting [2] was found to be 0.153.

For “ACAGACGAAGGAGCCGCAAAGAAGTTATTAAGGCATGAATAATCACTCAATATAAATATCTCTCACTTATTTAAA”, the “cleaved RNA product abundance” value by setting is: under setting [1], 0.118; under setting [2], 0.0873.

As to “ACAGACGAAGGAGCCGCAAAGAAGTTATTAAGGCATGAATAATCCATCAATATAAATATCTCTCACTTATTTAAA”, the “cleaved RNA product abundance” value under setting [1] turned out to be 0.102 and the “cleaved RNA product abundance” value under setting [2] stood at 0.114.

Regarding “ACAGACGAAGGAGCCGCAAAGAAGTTATTAAGGCATGAATAATCCCACAATATAAATATCTCTCACTTATTTAAA”, the “cleaved RNA product abundance” value is, setting by setting: under setting [1], 0.0968; under setting [2], 0.0597.

For “ACAGACGAAGGAGCCGCAAAGAAGTTATTAAGGCATGAATAATCCCCCAATATAAATATCTCTCACTTATTTAAA”, the “cleaved RNA product abundance” value under setting [1] came out at 0.11 and the “cleaved RNA product abundance” value under setting [2] turned out to be 0.0993.

Take “ACAGACGAAGGAGCCGCAAAGAAGTTATTAAGGCATGAATAATCCCTAAATATAAATATCTCTCACTTATTTAAA”: the “cleaved RNA product abundance” value is 0.114 under setting [1] and 0.151 under setting [2].

Take “ACAGACGAAGGAGCCGCAAAGAAGTTATTAAGGCATGAATAATCCCTCAAAATAAATATCTCTCACTTATTTAAA”: the “cleaved RNA product abundance” value worked out at 0.0982 under setting [1] and 0.141 under setting [2].

In the case of “ACAGACGAAGGAGCCGCAAAGAAGTTATTAAGGCATGAATAATCCCTCAACATAAATATCTCTCACTTATTTAAA”, the “cleaved RNA product abundance” value worked out at 0.119 under setting [1] and 0.112 under setting [2].

As for “ACAGACGAAGGAGCCGCAAAGAAGTTATTAAGGCATGAATAATCCCTCAAGATAAATATCTCTCACTTATTTAAA”, the “cleaved RNA product abundance” value under setting [1] amounted to 0.0843 and the “cleaved RNA product abundance” value under setting [2] turned out to be 0.142.

As for “ACAGACGAAGGAGCCGCAAAGAAGTTATTAAGGCATGAATAATCCCTCAATAAAAATATCTCTCACTTATTTAAA”, under setting [2], the “cleaved RNA product abundance” value was determined as 0.0606.

As for “ACAGACGAAGGAGCCGCAAAGAAGTTATTAAGGCATGAATAATCCCTCAATACAAATATCTCTCACTTATTTAAA”, the “cleaved RNA product abundance” value under setting [2] turned out to be 0.058.

Consider “ACAGACGAAGGAGCCGCAAAGAAGTTATTAAGGCATGAATAATCCCTCAATAGAAATATCTCTCACTTATTTAAA”, for which the “cleaved RNA product abundance” value under setting [2] stood at 0.0906.

Regarding “ACAGACGAAGGAGCCGCAAAGAAGTTATTAAGGCATGAATAATCCCTCAATATAAAAATCTCTCACTTATTTAAA”, the “cleaved RNA product abundance” value under setting [2] was determined as 0.0882.

Take “ACAGACGAAGGAGCCGCAAAGAAGTTATTAAGGCATGAATAATCCCTCAATATAAATAACTCTCACTTATTTAAA”: the “cleaved RNA product abundance” value runs as follows: under setting [1], 0.0904; under setting [2], 0.111.

In the case of “ACAGACGAAGGAGCCGCAAAGAAGTTATTAAGGCATGAATAATCCCTCAATATAAATAGCTCTCACTTATTTAAA”, the “cleaved RNA product abundance” value under setting [1] is 0.0721 and the “cleaved RNA product abundance” value under setting [2] was determined as 0.0902.

For the sequence “ACAGACGAAGGAGCCGCAAAGAAGTTATTAAGGCATGAATAATCCCTCAATATAAATATCTCTCACTATTTAAAG”, under setting [2], the “cleaved RNA product abundance” value worked out at 0.146.

Regarding “ACAGACGAAGGAGCCGCAAAGAAGTTATTAAGGCATGAATAATCCCTCAATATAAATATCTCTCACTTATTTAAA”, the “cleaved RNA product abundance” value under setting [1] was found to be 0.0901; the “cleaved RNA product abundance” value under setting [2] stood at 0.125; the “cleaved RNA product abundance” value (experiment (reporter, strain, medium): exp 6: tetM reporter, strain 168) was found to be 0.124.

Take “ACAGACGAAGGAGCCGCAAAGAAGTTATTAAGGCATGAATAATCCCTCAATATAAATTTCTCTCACTTATTTAAA”: the “cleaved RNA product abundance” value was found to be 0.0999 under setting [1] and 0.0847 under setting [2].

On to “ACAGACGAAGGAGCCGCAAAGAAGTTATTAAGGCATGAATAATCCCTCAATATAATTATCTCTCACTTATTTAAA”, for which the “cleaved RNA product abundance” value runs as follows: under setting [1], 0.0921; under setting [2], 0.095.

In the case of “ACAGACGAAGGAGCCGCAAAGAAGTTATTAAGGCATGAATAATCCCTCAATATACATATCTCTCACTTATTTAAA”, the “cleaved RNA product abundance” value under setting [1] was found to be 0.112 and the “cleaved RNA product abundance” value under setting [2] worked out at 0.129.

“ACAGACGAAGGAGCCGCAAAGAAGTTATTAAGGCATGAATAATCCCTCAATATATATATCTCTCACTTATTTAAA”: the “cleaved RNA product abundance” value reads like this: under setting [1], 0.106; under setting [2], 0.11.

For “ACAGACGAAGGAGCCGCAAAGAAGTTATTAAGGCATGAATAATCCCTCAATATGAATATCTCTCACTTATTTAAA”, the “cleaved RNA product abundance” value under setting [2] was determined as 0.0354.

Turning to “ACAGACGAAGGAGCCGCAAAGAAGTTATTAAGGCATGAATAATCCCTCAATATTAATATCTCTCACTTATTTAAA”, under setting [2], the “cleaved RNA product abundance” value was 0.0489.

With “ACAGACGAAGGAGCCGCAAAGAAGTTATTAAGGCATGAATAATCCCTCAATGTAAATATCTCTCACTTATTTAAA”, the “cleaved RNA product abundance” value under setting [2] came out at 0.0571.

Consider “ACAGACGAAGGAGCCGCAAAGAAGTTATTAAGGCATGAATAATCCCTCAATTTAAATATCTCTCACTTATTTAAA”, for which the “cleaved RNA product abundance” value was found to be 0.059 under setting [1] and 0.0584 under setting [2].

For “ACAGACGAAGGAGCCGCAAAGAAGTTATTAAGGCATGAATAATCCCTCACTATAAATATCTCTCACTTATTTAAA”, the “cleaved RNA product abundance” value is, setting by setting: under setting [1], 0.083; under setting [2], 0.136.

Consider “ACAGACGAAGGAGCCGCAAAGAAGTTATTAAGGCATGAATAATCCCTCAGTATAAATATCTCTCACTTATTTAAA”, for which, under setting [2], the “cleaved RNA product abundance” value stood at 0.0715.

For “ACAGACGAAGGAGCCGCAAAGAAGTTATTAAGGCATGAATAATCCCTCATTATAAATATCTCTCACTTATTTAAA”, the “cleaved RNA product abundance” value under setting [1] is 0.0915 and the “cleaved RNA product abundance” value under setting [2] was 0.0852.

For “ACAGACGAAGGAGCCGCAAAGAAGTTATTAAGGCATGAATAATCCCTCCATATAAATATCTCTCACTTATTTAAA”, the “cleaved RNA product abundance” value under setting [1] was 0.0936.

As to “ACAGACGAAGGAGCCGCAAAGAAGTTATTAAGGCATGAATAATCCCTCGATATAAATATCTCTCACTTATTTAAA”, the “cleaved RNA product abundance” value under setting [2] worked out at 0.0814.

With “ACAGACGAAGGAGCCGCAAAGAAGTTATTAAGGCATGAATAATCCCTCTATATAAATATCTCTCACTTATTTAAA”, the “cleaved RNA product abundance” value runs as follows: under setting [1], 0.0791; under setting [2], 0.0965.

As for “ACAGACGAAGGAGCCGCAAAGAAGTTATTAAGGCATGAATAATCCCTGAATATAAATATCTCTCACTTATTTAAA”, the “cleaved RNA product abundance” value reads like this: under setting [1], 0.102; under setting [2], 0.0864.

On to “ACAGACGAAGGAGCCGCAAAGAAGTTATTAAGGCATGAATAATCCCTTAATATAAATATCTCTCACTTATTTAAA”, for which the “cleaved RNA product abundance” value by setting is: under setting [1], 0.411; under setting [2], 0.291.

In the case of “ACAGACGAAGGAGCCGCAAAGAAGTTATTAAGGCATGAATAATCCGTCAATATAAATATCTCTCACTTATTTAAA”, under setting [2], the “cleaved RNA product abundance” value turned out to be 0.0753.

With “ACAGACGAAGGAGCCGCAAAGAAGTTATTAAGGCATGAATAATCCTTCAATATAAATATCTCTCACTTATTTAAA”, the “cleaved RNA product abundance” value runs as follows: under setting [1], 0.115; under setting [2], 0.13.

As to “ACAGACGAAGGAGCCGCAAAGAAGTTATTAAGGCATGAATAATCGCTCAATATAAATATCTCTCACTTATTTAAA”, the “cleaved RNA product abundance” value under setting [2] turned out to be 0.0686.

On to “ACAGACGAAGGAGCCGCAAAGAAGTTATTAAGGCATGAATAATCTCTCAATATAAATATCTCTCACTTATTTAAA”, for which the “cleaved RNA product abundance” value under setting [1] worked out at 0.0853 and the “cleaved RNA product abundance” value under setting [2] is 0.125.

Turning to “ACAGACGAAGGAGCCGCAAAGAAGTTATTAAGGCATGAATAATTCCTCAATATAAATATCTCTCACTTATTTAAA”, the “cleaved RNA product abundance” value reads like this: under setting [1], 0.107; under setting [2], 0.133.

With “ACAGACGAAGGAGCCGCAAAGAAGTTATTAAGGCATGAATACTCCCTCAATATAAATATCTCTCACTTATTTAAA”, the “cleaved RNA product abundance” value under setting [2] came out at 0.072.

For “ACAGACGAAGGAGCCGCAAAGAAGTTATTAAGGCATGAATATTCCCTCAATATAAATATCTCTCACTTATTTAAA”, the “cleaved RNA product abundance” value worked out at 0.119 under setting [1] and 0.144 under setting [2].
